Assay results from US7524498.
“And” between values parts separate entries of the source, which are not always exact repeats. Equal entries are not always repeated. Where two headings read alike, the source gives them in different places.

B1: humanized BATRHC/BATRκD γ1 mAb (antibody, V domains shown)
VH: QVQLVQSGSELKKPGASVKISCKASGYTFTNYGMNWVRQAPGQGLQWMGWINTDSGESTYAEEFKGRFVFSLDTSVNTAYLQITSLTAEDTGMYFCVRVGYDALDYWGQGTLVTVSS
VL: EIVLTQSPSSLSASVGDRVTITCSARSSVSYMHWFQQKPGKAPKLWIYRTSNLASGVPSRFSGSGSGTSYCLTINSLQPEDFATYYCQQRSSFPLTFGGGTKLEIK

Key:
BAT-1 antigen (human) [1] = test: flow cytometry on non-activated human CD4+ T cells
BAT-1 antigen (human) [2] = test: flow cytometry on human PBL of normal donors, 4° C. 1 hr, gated lymphocytes
BAT-1 antigen (human) [3] = test: flow cytometry on non-adherent PBL of a normal donor
BAT-1 antigen (human) [4] = test: flow cytometry on human PBL of a selected normal donor, hBAT+ CD4+ cells
BAT-1 antigen (human) [5] = test: flow cytometry on human PBL of a selected normal donor, hBAT+ CD8+ cells
BAT-1 antigen (human) [6] = target: BAT-1 antigen (human)
BAT-1 antigen (human) [7] = test: flow cytometry on PBL of a prostate cancer patient, CD4+ cells
BAT-1 antigen (human) [8] = test: flow cytometry on non-adherent PBL of a normal donor, within CD20+ B cells
BAT-1 antigen (human) [9] = test: flow cytometry on PBL of a prostate cancer patient, CD8+ cells
BAT-1 antigen (human) [10] = test: flow cytometry on PBL of a prostate cancer patient, B cells
BAT-1 antigen (human) [11] = test: flow cytometry on non-adherent PBL of a normal donor, within CD19+ B cells
BAT-1 antigen (human) [12] = test: flow cytometry on human PBL of a selected normal donor, within CD4+ cells
BAT-1 antigen (human) [13] = test: flow cytometry on human PBL of a selected normal donor, within CD8+ cells
BAT-1 antigen (human) [14] = target: BAT-1 antigen (human); remark: listed apart in the source
BAT-1 antigen (human) [15] = target: BAT-1 antigen (human); remark: listed apart in the source
BAT-1 antigen (human) [16] = test: flow cytometry on human PBL of a selected normal donor

| Molecule | % of CD4+ cells binding (BAT-1 antigen (human) [1]) | % of cells binding (BAT-1 antigen (human) [2]) [%] | % of lymphocytes positive (BAT-1 antigen (human) [3]) | % of PBL positive (CD4+ cells) (BAT-1 antigen (human) [4]) [%] | % of PBL positive (CD8+ cells) (BAT-1 antigen (human) [5]) [%] | IC50 (BAT-1 antigen (human) [6]) [µg/mL] | % of CD4+ cells bound (BAT-1 antigen (human) [7]) [%] | % of CD20+ cells positive (BAT-1 antigen (human) [8]) [%] | % of CD8+ cells bound (BAT-1 antigen (human) [9]) [%] | % of B cells bound (BAT-1 antigen (human) [10]) [%] | % of CD19+ cells positive (BAT-1 antigen (human) [11]) [%] | % of CD4+ cells binding (BAT-1 antigen (human) [12]) [%] | % of CD8+ cells binding (BAT-1 antigen (human) [13]) [%] | Signal Strength (BAT-1 antigen (human) [14]) | % of CD4+ cells binding (BAT-1 antigen (human) [15]) | % of cells positive (BAT-1 antigen (human) [16]) [%] |
| --- | --- | --- | --- | --- | --- | --- | --- | --- | --- | --- | --- | --- | --- | --- | --- | --- |
| humanized BATRHC/BATRκD γ1 mAb (antibody) | 17% and 20% | 20 | 25% and 29% | 25 | 15 | 10 | 39 | 70 | 60 | 68 | 75 |  |  |  |  |  |
| B1 |  |  |  |  |  |  |  |  |  |  |  | 58 | 71 | 0 | 52% and 77% | 50 |
